The record followed here is publication PMC10397247.

Test in all cases: two-hybrid library CCNG1;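 further: natural log of median RNA to DNA barcode read ratio; higher means stronger binding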
The target of experiment [1] is T1, 4H344-bA.
T1 chain: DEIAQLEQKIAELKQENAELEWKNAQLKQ

Experiment [2] deals with T2, 4H363-bA.
T2 chain: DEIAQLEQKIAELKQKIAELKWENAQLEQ

Experiment [3] concerns the target T3, 4H3907-bA.
T3 chain: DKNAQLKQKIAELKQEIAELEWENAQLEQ

In experiment [4] the target is T4, 4H3961-bA.
T4 chain: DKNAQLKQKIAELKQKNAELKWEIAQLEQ

The target of experiment [5] is T5, 4H470-bA.
T5 chain: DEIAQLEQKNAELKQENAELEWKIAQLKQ

The target in experiment [6] is T6, 4H2438-bA.
T6 chain: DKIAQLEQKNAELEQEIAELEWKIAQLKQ

Experiment [7] deals with T7, 4H2473-bA.
T7 chain: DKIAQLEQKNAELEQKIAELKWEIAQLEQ

For experiment [8], the target named is T8, 4H2503-bA.
T8 chain: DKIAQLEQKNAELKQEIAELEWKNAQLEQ

The target of experiment [9] is T9, 4H2588-bA.
T9 chain: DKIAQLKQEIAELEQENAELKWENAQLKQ

For experiment [10], the target named is T10, 4H2692-bA.
T10 chain: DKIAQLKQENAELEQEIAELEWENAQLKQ

The target of experiment [11] is T11, 4H2717-bA.
T11 chain: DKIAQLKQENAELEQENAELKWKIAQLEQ

The target of experiment [12] is T12, 4H2839-bA.
T12 chain: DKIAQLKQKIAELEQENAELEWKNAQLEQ

Experiment [13] concerns the target T13, 4H2915-bA.
T13 chain: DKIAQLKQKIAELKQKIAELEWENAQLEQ

The target of experiment [14] is T14, 4H3057-bA.
T14 chain: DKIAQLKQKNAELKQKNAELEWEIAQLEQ

For experiment [15], the target named is T15, 4H319-bA.
T15 chain: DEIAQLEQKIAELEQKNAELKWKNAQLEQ

Experiment [16] has as its target T16, 4H3277-bA.
T16 chain: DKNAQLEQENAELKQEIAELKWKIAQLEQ

For experiment [17], the target named is T17, 4H348-bA.
T17 chain: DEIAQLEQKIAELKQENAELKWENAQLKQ

For experiment [18], the target named is T18, 4H40-bA.
T18 chain: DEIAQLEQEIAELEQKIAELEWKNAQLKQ

For experiment [19], the target named is T19, 4H477-bA.
T19 chain: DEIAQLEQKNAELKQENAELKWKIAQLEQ

The target in experiment [20] is T20, 4H492-bA.
T20 chain: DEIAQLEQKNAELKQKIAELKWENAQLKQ

Experiment [21] has as its target T21, 4H741-bA.
T21 chain: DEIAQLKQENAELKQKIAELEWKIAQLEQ

For experiment [22], the target named is T22, 4H967-bA.
T22 chain: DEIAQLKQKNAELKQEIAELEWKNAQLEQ

For DEIAQLEQKIAELKQENAELEWKNAQLKQ [4H344-bA], the interaction score is -0.268 in [1]; -0.443 in [2]; 0.155 in [3]; 1.48 in experiment [4]; 0.691 in experiment [5].

On to DKIAQLEQKNAELEQEIAELEWKIAQLKQ [4H2438-bA], for which the interaction score in experiment [6] is 1.74; in experiment [7], 1.36; in experiment [8], 0.927; in [9], -1.29; in experiment [10], 0.00488; in experiment [11], -0.288. The interaction score in experiment [12] is 0.364; in [13] it was 1.77; in experiment [14] it was 2.39; in experiment [15], -0.948; in [16] it was -1.45; in experiment [17] it was 0.0426. In addition, the interaction score was -0.83 in [18]; -0.278 in experiment [19]; 1.59 in [20]; -0.215 in [21]; -0.568 in [22].
